According to patent publication US20260042850A1 (LOCKBODY THERAPEUTICS, published 2026):

B1: 07C10 (antibody, IgG4, V domains shown)
VH: QVQLVQSGAEVKKPGASVKVSCKASGYIFTAYSMHWVRQAPGQGLEWMGIIKPSNGSTNYAQKFQGRVTMTRDTSTSTVYMELSSLRSEDTAVYYCARAEITTEFDYWGQGTLVTVSS
VL: EIVLTQSPGTLSLSPGERATLSCRASQSVESYAQSYLHWYQQKPGQAPRLLIYRGSTRESGIPDRFSGSGSGTDFTLTISRLEPEDFAVYYCQQSKEEPLTFGGGTKVEIK
B2: Grafted clone (Graft), IGHV1-46/IGKV3-20 CDR graft of 224G11 (antibody, human IgG4, V domains shown)
VH: QVQLVQSGAEVKKPGASVKVSCKASGYIFTAYTMHWVRQAPGQGLEWMGWIKPNNGLANYAQKFQGRVTMTRDTSTSTVYMELSSLRSEDTAVYYCARSEITTEFDYWGQGTLVTVSS
VL: EIVLTQSPGTLSLSPGERATLSCRASQSVDSYANSFLHWYQQKPGQAPRLLIYRASTRESGIPDRFSGSGSGTDFTLTISRLEPEDFAVYYCQQSKEDPLTFGGGTKVEIK
notes: also called VH graft/VL graft
B3: MH6 (antibody, IgG4, V domains shown)
VH: QVQLVQSGAEVKKPGASVKVSCKASGYTFTSYTMHWVRQAPGQGLEWMGWINPSGGSTSYAQKFQGRVTMTRDTSTSTVYMELSSLRSEDTAVYYCARQEITTEFDYWGQGTLVTVSS
VL: EIVLTQSPGTLSLSPGERATLSCRASQSVSSYAQSYLHWYQQKPGQAPRLLIYRGSTRETGIPDRFSGSGSGTDFTLTISRLEPEDFAVYYCQQYGSSPLTFGGGTKVEIK
B4: 09B08 (antibody, IgG4, V domains shown)
VH: QVQLVQSGAEVKKPGASVKVSCKASGYTFTSYTMHWVRQAPGQGLEWMGWINPNNGSTNYAQKFQGRVTMTRDTSTSTVYMELSSLRSEDTAVYYCARSEITTDFDYWGQGTLVTVSS
VL: EIVLTQSPGTLSLSPGERATLSCRASQSVSSYANSYLHWYQQKPGQAPRLLIYRGSTRESGIPDRFSGSGSGTDFTLTISRLEPEDFAVYYCQQSKSDPLTFGGGTKVEIK
B5: 08B12 (antibody, IgG4, V domains shown)
VH: QVQLVQSGAEVKKPGASVKVSCKASGYIFTAYSMHWVRQAPGQGLEWMGWIKPNNGSTNYAQKFQGRVTMTRDTSTSTVYMELSSLRSEDTAVYYCARTEITTEFDYWGQGTLVTVSS
VL: EIVLTQSPGTLSLSPGERATLSCRASQSVDSYANSYLHWYQQKPGQAPRLLIYRGSTRETGIPDRFSGSGSGTDFTLTISRLEPEDFAVYYCQQSKSDPLTFGGGTKVEIK
B6: MH5 (antibody, IgG4, V domains shown)
VH: QVQLVQSGAEVKKPGASVKVSCKASGYTFTSYTMHWVRQAPGQGLEWMGWINPSGGSTSYAQKFQGRVTMTRDTSTSTVYMELSSLRSEDTAVYYCARQEITTEFDYWGQGTLVTVSS
VL: EIVLTQSPGTLSLSPGERATLSCRASQSVSSYAQSYLHWYQQKPGQAPRLLIYRGSTRETGIPDRFSGSGSGTDFTLTISRLEPEDFAVYYCQQSGSSPLTFGGGTKVEIK
B7: MH12 (antibody, IgG4, V domains shown)
VH: QVQLVQSGAEVKKPGASVKVSCKASGYTFTSYAMHWVRQAPGQGLEWMGWINPSGGSTSYAQKFQGRVTMTRDTSTSTVYMELSSLRSEDTAVYYCARQEITTEFDYWGQGTLVTVSS
VL: EIVLTQSPGTLSLSPGERATLSCRASQSVSSYAQSYLHWYQQKPGQAPRLLIYRGSTRETGIPDRFSGSGSGTDFTLTISRLEPEDFAVYYCQQYGSSPLTFGGGTKVEIK
B8: MH1 (antibody, IgG4, V domains shown)
VH: QVQLVQSGAEVKKPGASVKVSCKASGYTFTSYTMHWVRQAPGQGLEWMGWINPNGGSTSYAQKFQGRVTMTRDTSTSTVYMELSSLRSEDTAVYYCARQEITTEFDYWGQGTLVTVSS
VL: EIVLTQSPGTLSLSPGERATLSCRASQSVSSYANSYLHWYQQKPGQAPRLLIYRGSTRESGIPDRFSGSGSGTDFTLTISRLEPEDFAVYYCQQSKSEPLTFGGGTKVEIK
B9: MH11 (antibody, IgG4, V domains shown)
VH: QVQLVQSGAEVKKPGASVKVSCKASGYTFTSYAMHWVRQAPGQGLEWMGWINPSGGSTSYAQKFQGRVTMTRDTSTSTVYMELSSLRSEDTAVYYCARQEITTEFDYWGQGTLVTVSS
VL: EIVLTQSPGTLSLSPGERATLSCRASQSVSSYAQSYLHWYQQKPGQAPRLLIYRGSTRETGIPDRFSGSGSGTDFTLTISRLEPEDFAVYYCQQSGSSPLTFGGGTKVEIK
B10: MH3 (antibody, IgG4, V domains shown)
VH: QVQLVQSGAEVKKPGASVKVSCKASGYTFTSYTMHWVRQAPGQGLEWMGWINPNGGSTSYAQKFQGRVTMTRDTSTSTVYMELSSLRSEDTAVYYCARQEITTEFDYWGQGTLVTVSS
VL: EIVLTQSPGTLSLSPGERATLSCRASQSVSSYAQSYLHWYQQKPGQAPRLLIYRGSTRETGIPDRFSGSGSGTDFTLTISRLEPEDFAVYYCQQYGSSPLTFGGGTKVEIK
notes: also called MH03
B11: MH2 (antibody, IgG4, V domains shown)
VH: QVQLVQSGAEVKKPGASVKVSCKASGYTFTSYTMHWVRQAPGQGLEWMGWINPNGGSTSYAQKFQGRVTMTRDTSTSTVYMELSSLRSEDTAVYYCARQEITTEFDYWGQGTLVTVSS
VL: EIVLTQSPGTLSLSPGERATLSCRASQSVSSYAQSYLHWYQQKPGQAPRLLIYRGSTRETGIPDRFSGSGSGTDFTLTISRLEPEDFAVYYCQQSGSSPLTFGGGTKVEIK

Legend:
[1] = biological target: T1, human C-MET on stably transfected CHO-K1 cells (human, UniProt P08581 25-1390); assay: flow cytometry, C-MET CHO-K1 cells
T1 construct: also called hucMET; human C-MET+ CHO-K1 cells
Description: (§1) Purified IgGs were tested in FACs for binding to human and cyno C-MET expressed on CHO-K1 stable cell lines and CHO-K1 wild-type cells. The IgG samples were titrated in three-fold serial dilutions starting at 500 nM to 0.08 nM. Binding of IgGs was detected with a mouse anti-human IgG conjugated to FITC. Results were analyzed by examining the Mean Fluorescence Intensity (MFI) of 10000 cells per sample in the BL-1 channel detector of a flow cytometer (Attune™ NxT Acoustic Focusing Cytometer, Invitrogen/ThermoFisher Scientific).

[2] = biological target: T2, cynomolgus monkey C-MET on stably transfected CHO-K1 cells (cynomolgus monkey, UniProt A0M8R7 25-1381 (Papio anubis entry)); assay: flow cytometry, C-MET CHO-K1 cells
T2 construct: also called cycMET; cyno C-MET+ CHO-K1 cells
Description: as §1

[3] = biological target: T3, human C-MET His tagged, monomeric (human, UniProt P08581 25-932); assay: SPR Biacore, IgG captured, monomeric C-MET-His analyte
T3 construct: also called monomeric human C-MET; biotinylated human C-MET-His
Description: (§2) Affinity (KD) of purified IgGs was determined via SPR with antigen in-solution on a Biacore® 3000 (GE). A mouse anti-human antibody (CH1 specific) was immobilized on a CM5 Sensor Chip to a level of 2000 RU in acetate buffer at pH 4.5 using amine coupling following the Wizard instructions for two channels. One channel was used for background signal correction. The standard running buffer HBS-EP pH 7.4 was used. Regeneration was performed with a single injection of 10 μl of 10 mM Glycine at pH 1.5 at 20 μl/minute. IgG samples were injected for 2 minutes at 50 nM at 30 μl/min followed by and off-rate of 60 seconds. The monomeric antigen (human C-MET His tagged or cynomolgus monkey C-MET His tag) was injected in two fold serial dilutions from 100 nM down to 6 nM, for 2 minutes at 30 μl/min followed by an off-rate of 300 seconds. The obtained sensorgrams were analysed using the Biacore® 3000 evaluation (BIAevaluation) software. The KD was calculated by simultaneous fitting of the association and dissociation phases to a 1:1 Langmuir binding model.

[4] = biological target: T4, cynomolgus monkey C-MET His tag, monomeric (cynomolgus monkey, UniProt A0M8R7 25-932 (Papio anubis entry)); assay: as above
T4 construct: also called monomeric cyno C-MET; cyCMET
Description: as §2

[5] = biological target: T1, human C-MET on stably transfected …; assay: flow cytometry, C-MET CHO-K1 cells; remark: listed apart in the source
Description: as §1
(§3) Antibodies to C-MET were analysed for concentration-dependent binding at the cell surface via flow cytometry. CHO-K1 cells were stably transfected with either human or cyno C-MET full-length cDNAs. Anti-C-MET IgGs and an isotype control IgG4(S228P) were then all tested in IgG4(S228P) format, over a concentration range of 500-0.08 nM for binding to human (FIG. 5A) and cyno (FIG. 5B) CHO-K1 cells.

[6] = biological target: T2, cynomolgus monkey C-MET on stably …; assay: flow cytometry, C-MET CHO-K1 cells; remark: listed apart in the source
Description: as §1, §3

T3 sequence (P08581 25-932): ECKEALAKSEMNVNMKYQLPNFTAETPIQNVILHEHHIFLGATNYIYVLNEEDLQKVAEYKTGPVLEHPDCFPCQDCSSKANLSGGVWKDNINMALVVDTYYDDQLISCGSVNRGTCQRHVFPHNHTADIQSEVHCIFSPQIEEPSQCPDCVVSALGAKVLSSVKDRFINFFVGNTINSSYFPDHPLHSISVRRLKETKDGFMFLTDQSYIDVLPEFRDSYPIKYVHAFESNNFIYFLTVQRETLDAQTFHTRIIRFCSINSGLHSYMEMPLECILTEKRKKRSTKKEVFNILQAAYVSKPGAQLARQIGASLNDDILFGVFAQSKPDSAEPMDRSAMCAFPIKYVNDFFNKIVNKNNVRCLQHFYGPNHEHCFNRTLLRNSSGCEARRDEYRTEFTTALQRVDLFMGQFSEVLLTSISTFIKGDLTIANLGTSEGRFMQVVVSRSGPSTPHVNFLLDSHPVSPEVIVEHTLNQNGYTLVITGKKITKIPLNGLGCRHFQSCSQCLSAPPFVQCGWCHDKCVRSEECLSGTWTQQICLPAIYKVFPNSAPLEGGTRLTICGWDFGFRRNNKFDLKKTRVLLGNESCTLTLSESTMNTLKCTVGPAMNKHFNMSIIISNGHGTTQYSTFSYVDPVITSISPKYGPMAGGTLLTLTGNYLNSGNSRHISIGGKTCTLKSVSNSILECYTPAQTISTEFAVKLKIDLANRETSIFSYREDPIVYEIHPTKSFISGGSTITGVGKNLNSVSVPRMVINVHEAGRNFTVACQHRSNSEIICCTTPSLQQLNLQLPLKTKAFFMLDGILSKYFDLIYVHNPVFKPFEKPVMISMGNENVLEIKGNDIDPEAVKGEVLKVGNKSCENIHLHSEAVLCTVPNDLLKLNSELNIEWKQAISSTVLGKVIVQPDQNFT
T2 sequence (A0M8R7 25-1381 S170N/I621T limits assumed): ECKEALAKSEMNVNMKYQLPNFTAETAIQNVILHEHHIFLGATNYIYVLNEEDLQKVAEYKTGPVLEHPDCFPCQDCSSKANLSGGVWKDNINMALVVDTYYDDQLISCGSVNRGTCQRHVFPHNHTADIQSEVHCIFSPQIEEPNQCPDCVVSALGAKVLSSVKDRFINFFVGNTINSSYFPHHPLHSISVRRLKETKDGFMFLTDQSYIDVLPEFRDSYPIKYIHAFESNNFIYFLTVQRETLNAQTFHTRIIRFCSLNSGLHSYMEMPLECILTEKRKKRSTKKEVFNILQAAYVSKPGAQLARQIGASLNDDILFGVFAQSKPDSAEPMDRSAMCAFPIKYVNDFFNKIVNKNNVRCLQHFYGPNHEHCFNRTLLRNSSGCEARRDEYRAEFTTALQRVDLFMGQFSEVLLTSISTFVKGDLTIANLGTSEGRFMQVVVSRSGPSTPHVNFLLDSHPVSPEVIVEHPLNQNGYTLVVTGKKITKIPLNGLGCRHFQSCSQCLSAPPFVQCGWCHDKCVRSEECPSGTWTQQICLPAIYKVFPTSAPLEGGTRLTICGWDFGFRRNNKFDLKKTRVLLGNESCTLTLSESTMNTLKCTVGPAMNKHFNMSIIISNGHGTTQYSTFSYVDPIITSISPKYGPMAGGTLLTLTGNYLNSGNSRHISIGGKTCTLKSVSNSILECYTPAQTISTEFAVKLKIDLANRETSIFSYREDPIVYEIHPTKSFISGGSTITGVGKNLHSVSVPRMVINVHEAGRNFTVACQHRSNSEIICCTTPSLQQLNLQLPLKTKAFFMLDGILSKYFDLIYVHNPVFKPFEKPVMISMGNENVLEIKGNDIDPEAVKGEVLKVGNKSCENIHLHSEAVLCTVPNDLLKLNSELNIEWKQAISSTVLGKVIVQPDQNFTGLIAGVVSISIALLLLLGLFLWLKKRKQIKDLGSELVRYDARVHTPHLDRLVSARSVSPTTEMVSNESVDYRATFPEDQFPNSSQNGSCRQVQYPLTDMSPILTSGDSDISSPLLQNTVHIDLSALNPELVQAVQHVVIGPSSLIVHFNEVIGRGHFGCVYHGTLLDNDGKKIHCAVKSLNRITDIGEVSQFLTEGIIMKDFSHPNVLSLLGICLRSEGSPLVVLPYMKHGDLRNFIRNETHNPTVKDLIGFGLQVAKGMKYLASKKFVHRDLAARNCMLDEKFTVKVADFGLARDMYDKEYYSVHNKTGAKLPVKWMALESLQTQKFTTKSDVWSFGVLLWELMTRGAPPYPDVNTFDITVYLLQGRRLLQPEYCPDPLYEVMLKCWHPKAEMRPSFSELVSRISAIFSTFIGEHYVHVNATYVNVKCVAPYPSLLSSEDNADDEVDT
T4 sequence (A0M8R7 25-932 S170N/I621T): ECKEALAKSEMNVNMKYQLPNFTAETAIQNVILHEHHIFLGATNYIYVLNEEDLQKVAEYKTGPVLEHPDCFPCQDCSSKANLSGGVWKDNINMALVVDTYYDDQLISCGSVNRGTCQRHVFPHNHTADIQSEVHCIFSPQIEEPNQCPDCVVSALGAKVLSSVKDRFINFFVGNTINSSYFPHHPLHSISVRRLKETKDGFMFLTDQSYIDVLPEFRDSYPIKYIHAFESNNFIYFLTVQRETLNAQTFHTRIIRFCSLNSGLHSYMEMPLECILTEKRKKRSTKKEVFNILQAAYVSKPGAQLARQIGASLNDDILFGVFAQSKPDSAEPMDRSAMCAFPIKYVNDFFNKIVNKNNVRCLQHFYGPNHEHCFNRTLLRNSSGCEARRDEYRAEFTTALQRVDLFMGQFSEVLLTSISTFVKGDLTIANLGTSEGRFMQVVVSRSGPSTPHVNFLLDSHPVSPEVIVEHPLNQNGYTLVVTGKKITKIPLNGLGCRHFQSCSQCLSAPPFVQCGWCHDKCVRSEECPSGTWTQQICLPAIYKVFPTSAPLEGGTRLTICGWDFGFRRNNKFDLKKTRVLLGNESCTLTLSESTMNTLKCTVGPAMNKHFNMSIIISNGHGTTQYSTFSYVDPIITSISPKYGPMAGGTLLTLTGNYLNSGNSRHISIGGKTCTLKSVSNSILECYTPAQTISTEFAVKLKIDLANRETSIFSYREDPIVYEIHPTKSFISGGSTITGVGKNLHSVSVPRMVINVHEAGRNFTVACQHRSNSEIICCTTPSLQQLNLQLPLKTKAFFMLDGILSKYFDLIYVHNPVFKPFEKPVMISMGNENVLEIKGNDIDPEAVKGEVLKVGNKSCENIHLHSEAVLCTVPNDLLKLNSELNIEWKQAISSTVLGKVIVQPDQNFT
T1 sequence (P08581 25-1390 limits assumed): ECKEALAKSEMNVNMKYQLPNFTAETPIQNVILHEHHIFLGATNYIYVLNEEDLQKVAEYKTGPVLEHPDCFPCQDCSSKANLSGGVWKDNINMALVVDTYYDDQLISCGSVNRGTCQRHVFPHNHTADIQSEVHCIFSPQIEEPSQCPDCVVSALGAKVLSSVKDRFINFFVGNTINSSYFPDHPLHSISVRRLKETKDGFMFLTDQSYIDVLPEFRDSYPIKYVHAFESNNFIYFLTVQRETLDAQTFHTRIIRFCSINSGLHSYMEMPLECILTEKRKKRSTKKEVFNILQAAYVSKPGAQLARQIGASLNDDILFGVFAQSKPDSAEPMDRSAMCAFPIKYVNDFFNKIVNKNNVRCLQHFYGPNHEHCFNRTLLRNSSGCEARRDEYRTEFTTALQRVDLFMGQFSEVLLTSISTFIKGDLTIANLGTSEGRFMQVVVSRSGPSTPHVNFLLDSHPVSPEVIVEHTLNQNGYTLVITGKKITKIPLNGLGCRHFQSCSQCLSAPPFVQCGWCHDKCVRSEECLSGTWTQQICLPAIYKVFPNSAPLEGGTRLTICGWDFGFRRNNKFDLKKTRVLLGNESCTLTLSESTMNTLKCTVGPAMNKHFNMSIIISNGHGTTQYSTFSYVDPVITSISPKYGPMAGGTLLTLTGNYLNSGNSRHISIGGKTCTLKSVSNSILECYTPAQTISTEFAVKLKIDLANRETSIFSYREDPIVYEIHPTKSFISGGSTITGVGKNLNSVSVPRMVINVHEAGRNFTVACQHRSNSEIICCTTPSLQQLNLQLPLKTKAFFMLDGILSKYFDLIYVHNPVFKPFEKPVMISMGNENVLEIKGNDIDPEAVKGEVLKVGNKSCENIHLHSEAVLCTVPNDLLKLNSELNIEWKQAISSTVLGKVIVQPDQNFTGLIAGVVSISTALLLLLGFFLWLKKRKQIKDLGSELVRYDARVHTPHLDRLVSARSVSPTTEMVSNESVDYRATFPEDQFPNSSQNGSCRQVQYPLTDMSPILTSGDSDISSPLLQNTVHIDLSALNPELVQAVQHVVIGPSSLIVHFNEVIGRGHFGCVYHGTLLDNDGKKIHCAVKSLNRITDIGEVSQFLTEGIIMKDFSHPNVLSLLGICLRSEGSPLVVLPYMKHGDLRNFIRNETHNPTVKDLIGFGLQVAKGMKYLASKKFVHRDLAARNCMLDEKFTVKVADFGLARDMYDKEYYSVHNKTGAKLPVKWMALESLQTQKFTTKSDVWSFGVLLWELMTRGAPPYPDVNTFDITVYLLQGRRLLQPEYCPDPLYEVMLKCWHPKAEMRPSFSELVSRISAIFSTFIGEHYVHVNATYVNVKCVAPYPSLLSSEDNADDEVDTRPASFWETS

Row | Binder | EC50 [1] | EC50 [2] | Kd [3] | koff [3] | kon [3] | Kd [4] | koff [4] | kon [4] | maximum MFI, fold over Isotype IgG4 background [5] | maximum MFI, fold over Isotype IgG4 background [6]
1 | B1 | 9.59 nM | 2.82 nM | 0.78 nM | 9.4e-05 s⁻¹ | 120000 M⁻¹ s⁻¹ | 3.2 nM | 0.00021 s⁻¹ | 65000 M⁻¹ s⁻¹ | > 10 fold | > 10 fold
2 | B2 | – | – | 0.37 nM | 3.7e-05 s⁻¹ | 99000 M⁻¹ s⁻¹ | 0.22 nM | 5.2e-05 s⁻¹ | 230000 M⁻¹ s⁻¹ | > 10 fold | > 10 fold
3 | B3 | 1.33 nM | 0.72 nM | 8.2 nM | 0.00053 s⁻¹ | 65000 M⁻¹ s⁻¹ | 4 nM | 0.00063 s⁻¹ | 160000 M⁻¹ s⁻¹ | > 10 fold | > 10 fold
4 | B4 | 9.3 nM | 3.78 nM | 1.1 nM | 4.1e-05 s⁻¹ | 37000 M⁻¹ s⁻¹ | 0.2 nM | 1.2e-05 s⁻¹ | 60000 M⁻¹ s⁻¹ | > 10 fold | > 10 fold
5 | B5 | 11.7 nM | 1.34 nM | 8.4 nM | 0.00031 s⁻¹ | 37000 M⁻¹ s⁻¹ | 8.1 nM | 0.00043 s⁻¹ | 54000 M⁻¹ s⁻¹ | > 10 fold | > 10 fold
6 | B6 | 1.76 nM | 0.3 nM | 2 nM | 0.00015 s⁻¹ | 77000 M⁻¹ s⁻¹ | 1.3 nM | 0.00021 s⁻¹ | 170000 M⁻¹ s⁻¹ | > 10 fold | > 10 fold
7 | B7 | 1.25 nM | 0.51 nM | 6.5 nM | 0.00037 s⁻¹ | 56000 M⁻¹ s⁻¹ | 4 nM | 0.00043 s⁻¹ | 110000 M⁻¹ s⁻¹ | > 10 fold | > 10 fold
8 | B8 | 2.02 nM | 0.26 nM | 0.75 nM | 7.11e-05 s⁻¹ | 94700 M⁻¹ s⁻¹ | 0.14 nM | 2.6e-05 s⁻¹ | 180000 M⁻¹ s⁻¹ | > 10 fold | > 10 fold
9 | B9 | 1.68 nM | 0.69 nM | 2.6 nM | 0.00016 s⁻¹ | 62000 M⁻¹ s⁻¹ | 1.2 nM | 0.00018 s⁻¹ | 150000 M⁻¹ s⁻¹ | > 10 fold | > 10 fold
10 | B10 | 1.66 nM | 0.27 nM | 7.6 nM | 0.00051 s⁻¹ | 68000 M⁻¹ s⁻¹ | 4.1 nM | 0.00062 s⁻¹ | 150000 M⁻¹ s⁻¹ | > 10 fold | > 10 fold
11 | B11 | 1.59 nM | 0.34 nM | 2.5 nM | 0.00018 s⁻¹ | 73000 M⁻¹ s⁻¹ | 0.87 nM | 0.00021 s⁻¹ | 240000 M⁻¹ s⁻¹ | > 10 fold | > 10 fold
